Laboratory results as given in article PMC3670040, “Structure of Lipid Kinase p110β/p85β Elucidates an Unusual SH2-Domain-Mediated Inhibitory Mechanism” (Molecular Cell, 2011).

Test system: p110β
Experiment: Mass spectrometry assay of PIP3 production in vitro, brain lipids
Type: biochemical, mouse
Conditions: 10 nM protein, 100 μM ATP, 1 mg/ml lipid, 60 min; Figure S3A
Description: Figure S3, Related to Figures 1 and 2. Lipid Kinase Assays for p110β/p85 Constructs
(A) Lipid kinase activity of the p110β/p85β-nic, p110β/p85β-ni and p110β/p85β-ic, p110β C-terminal truncation/p85β-nic (ΔCter) and kinase dead (D913N) constructs as determined by mass spectroscopy. Error bars in panel A and other panels indicate SEM of four replicates.
(1 picture or pasted object on this page, not shown here)
Vesicles were "brain lipids" as in Figure S2. The protein concentration was 10 nM with 100 μM ATP and 1 mg/ml lipid. Reactions were carried out for 60 min. The bars show the integrated areas for the stearoyl-arachidonyl PtdIns(3,4,5)P3 peak.
(B) ATPase activity (no lipid substrate) of the wild-type and kinase dead p110β/p85β-nic construct in the absence and presence of 10 μM PDGF bis-phosphopeptide. Protein concentration was 75 nM with 100 μM ATP. Shaded bars represent activity for reactions with 5 μM added PI3K inhibitor GDC0941.
(C) Lipid kinase activity of a p110β/p85-icSH2 complex in which p110β Kα7/Kα8 elbow (966-KTGN) was replaced by the elbow of p110α (968-AQECTK). […]
The PIP3 lipids produced in PI3K in vitro assays as described above were also measured by a mass-spectrometry based assay (Clark et al.). […]

B1: p110β-ΔCter/nic: truncation mutant lacking 17 residues from the p110β C terminus; human ΔCter (1-1053) used in cells (protein, UniProt P42338 1-1053, looked up, fragment)
chain: MCFSFIMPPAMADILDIWAVDSQIASDGSIPVDFLLPTGIYIQLEVPREATISYIKQMLWKQVHNYPMFNLLMDIDSYMFACVNQTAVYEELEDETRRLCDVRPFLPVLKLVTRSCDPGEKLDSKIGVLIGKGLHEFDSLKDPEVNEFRRKMRKFSEEKILSLVGLSWMDWLKQTYPPEHEPSIPENLEDKLYGGKLIVAVHFENCQDVFSFQVSPNMNPIKVNELAIQKRLTIHGKEDEVSPYDYVLQVSGRVEYVFGDHPLIQFQYIRNCVMNRALPHFILVECCKIKKMYEQEMIAIEAAINRNSSNLPLPLPPKKTRIISHVWENNNPFQIVLVKGNKLNTEETVKVHVRAGLFHGTELLCKTIVSSEVSGKNDHIWNEPLEFDINICDLPRMARLCFAVYAVLDKVKTKKSTKTINPSKYQTIRKAGKVHYPVAWVNTMVFDFKGQLRTGDIILHSWSSFPDELEEMLNPMGTVQTNPYTENATALHVKFPENKKQPYYYPPFDKIIEKAAEIASSDSANVSSRGGKKFLPVLKEILDRDPLSQLCENEMDLIWTLRQDCREIFPQSLPKLLLSIKWNKLEDVAQLQALLQIWPKLPPREALELLDFNYPDQYVREYAVGCLRQMSDEELSQYLLQLVQVLKYEPFLDCALSRFLLERALGNRRIGQFLFWHLRSEVHIPAVSVQFGVILEAYCRGSVGHMKVLSKQVEALNKLKTLNSLIKLNAVKLNRAKGKEAMHTCLKQSAYREALSDLQSPLNPCVILSELYVEKCKYMDSKMKPLWLVYNNKVFGEDSVGVIFKNGDDLRQDMLTLQMLRLMDLLWKEAGLDLRMLPYGCLATGDRSGLIEVVSTSETIADIQLNSSNVAAAAAFNKDALLNWLKEYNSGDDLDRAIEEFTLSCAGYCVASYVLGIGDRHSDNIMVKKTGQLFHIDFGHILGNFKSKFGIKRERVPFILTYDFIHVIQQGKTGNTEKFGRFRQCCEDAYLILRRHGNLFITLFALMLTAGLPELTSVKDIQYLKDSLALGKSEEEALKQFKQKFDEALRESW
activity with brain lipids: no measurable activity
